# According to IntAct's records for PubMed 23856421:
# B1: Dolichol-phosphate mannosyltransferase subunit 1 (Homo sapiens), O60762 (parent)
# chain: MASLEVSRSPRRSRRELEVRSPRQNKYSVLLPTYNERENLPLIVWLLVKSFSESGINYEIIIIDDGSPDGTRDVAEQLEKIYGSDRILLRPREKKLGLGTAYIHGMKHATGNYIIIMDADLSHHPKFIPEFIRKQKEGNFDIVSGTRYKGNGGVYGWDLKRKIISRGANFLTQILLRPGASDLTGSFRLYRKEVLEKLIEKCVSKGYVFQMEMIVRARQLNYTIGEVPISFVDRVYGESKLGGNEIVSFLKGLLTLFATT
# partner: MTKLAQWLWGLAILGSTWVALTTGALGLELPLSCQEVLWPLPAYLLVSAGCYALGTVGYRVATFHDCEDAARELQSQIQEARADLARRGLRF
# Variants of: B1
# Conditions: with dpm3_human DPM3, Q9P2X0
row,effect of a mutation on the interaction,Variant
1,disrupting interaction,G152V
